Reference: patent US20240254240A1 (INSTITUTE FOR BASIC SCIENCE, published 2024)

B3: Human Tie2 ECD (residues 23-735 of human Tie2) (receptor, UniProt Q02763 23-735, looked up)
chain: AMDLILINSLPLVSDAETSLTCIASGWRPHEPITIGRDFEALMNQHQDPLEVTQDVTREWAKKVVWKREKASKINGAYFCEGRVRGEAIRIRTMKMRQQASFLPATLTMTVDKGDNVNISFKKVLIKEEDAVIYKNGSFIHSVPRHEVPDILEVHLPHAQPQDAGVYSARYIGGNLFTSAFTRLIVRRCEAQKWGPECNHLCTACMNNGVCHEDTGECICPPGFMGRTCEKACELHTFGRTCKERCSGQEGCKSYVFCLPDPYGCSCATGWKGLQCNEACHPGFYGPDCKLRCSCNNGEMCDRFQGCLCSPGWQGLQCEREGIQRMTPKIVDLPDHIEVNSGKFNPICKASGWPLPTNEEMTLVKPDGTVLHPKDFNHTDHFSVAIFTIHRILPPDSGVWVCSVNTVAGMVEKPFNISVKVLPKPLNAPNVIDTGHNFAVINISSEPYFGDGPIKSKKLLYKPVNHYEAWQHIQVTNEIVTLNYLEPRTEYELCVQLVRRGEGGEGHPGPVRRFTTASIGLPPPRGLNLLPKSQTTLNLTWQPIFPSSEDDFYVEVERRSVQKSDQQNIKVPGNLTSVLLNNLHPREQYVVRARVNTKAQGEWSEDLTAWTLSDILPPQPENIKISNITHSSAVISWTILDGYSISSITIRYKVQGKNEDQHVDVKIKNATITQYQLKGLEPETAYQVDIFAENNIGSSNPAFSHELVTLPES
notes: range 23-735; also called hTie2 ECD; hTie2

How the values were obtained:
[1] = target: B3; experiment: SPR (Biacore), hTie2 ECD immobilised on the chip (y axis 'RU (Tie2 ECD)'), antibody as analyte at 128, 256, 512, 1024 and 2048 nM, 1:1 binding model [panel i]
[2] = target: T1, hTie2 Ig3-Fn3 D682C/N691C (constitutive Tie2 dimer) (human, UniProt Q02763 349-738, Covalent homodimer: two copies of this chain joined by two intermolecular disulfide bonds between the introduced cysteines (C682 of one chain with C691 of the other); one copy is given.); experiment: size-exclusion chromatography and negative-stain EM of the complex
T1 construct: The positions count on full-length human Tie2; the Ig3-Fn3 entry is used; also called Tie2 dimeric mutant; hTie2 Ig3-Fn3 N691C/D682C
T1 chain: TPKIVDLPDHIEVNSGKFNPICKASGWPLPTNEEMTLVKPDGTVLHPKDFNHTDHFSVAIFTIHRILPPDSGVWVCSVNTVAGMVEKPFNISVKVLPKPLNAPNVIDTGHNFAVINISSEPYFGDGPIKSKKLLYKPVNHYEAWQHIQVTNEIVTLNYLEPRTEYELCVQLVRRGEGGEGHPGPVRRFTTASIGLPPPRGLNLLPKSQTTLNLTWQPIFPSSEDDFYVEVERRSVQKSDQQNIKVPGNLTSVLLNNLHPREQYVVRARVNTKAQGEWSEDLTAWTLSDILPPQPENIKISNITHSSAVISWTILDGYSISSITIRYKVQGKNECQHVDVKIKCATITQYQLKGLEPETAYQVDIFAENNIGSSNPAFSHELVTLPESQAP
From the text: The two residues D682 and N691 involved in the homotypic Fn3-Fn3′ interaction were mutated to cysteines (D682C and N691C) to introduce a disulfide bond (FIGS. 6d and e). […] After removal of aggregates by SEC, the structural arrangement of the resulting complex (peak of the shoulder) was examined using negative-stain electron microscopy (EM) (FIGS. 6f and 7).

[3] = target: B3; experiment: SPR (Biacore T200), hTie2 ECD amine-coupled on CM5, antibody as analyte, 1:1 model
Experimental: HEPES-buffered saline (0.01 M HEPES and 0.15 M NaCl) containing 3 mM EDTA (ethylenediaminetetraacetic acid) and 0.05% (v/v) P20 detergent (HBS-EP+) was used as reaction and running buffer (BR100669, GE Healthcare). Human Tie2 ECD (produced in-house; residues 23-735 of human Tie2, GenBank accession number: AAH35514.2) was immobilized on the surface of a CM5 sensor chip by amine coupling using 10 mM acetate at a pH of 5.5. […] Analytes bound to the sensor chips were dissociated by washing with HBS-EP+running buffer for 300 seconds. Both association (Kₒₙ, M⁻¹s⁻¹) and dissociation (Koff, s⁻¹) constants were measured at 300-second intervals. The equilibrium dissociation constant (KD, M) was calculated as the ratio of off-rate to on-rate (Koff/kₒₙ). Kinetic parameters were determined with the global fitting function of Biacore Insight Evaluation Software using a 1:1-binding model.
After purification, binding kinetics of the obtained antibodies to hTie2 ECD were evaluated using SPR.

[4] = target: the molecule itself; experiment: SEC-MALS (self-association)

B1: 3H7H12G4 (previously reported humanized antibody 3H7) (antibody, V domains shown)
VH: QVQLVQSGAEVKKPGASVKVSCKASGYTFTSYWMNWVRQAPGQGLEWMGMIHPSDSETRLNQKFMDRVTMTRDTSTSTVYMELSSLRSEDTAVYYCARGLYGNSWGQGTLVTVSS
VL: DIQMTQSPSSLSASVGDRVTITCRASQDIGISLNWLQQEPGKAPKRLIYATSSLDSGVPKRFSGSGSGTEFTLTISSLQPEDFATYYCLQYASSPYTFGQGTKVEIK
Kd [1]: 1100 nM | koff [1]: 0.003 s⁻¹ | kon [1]: 2800 M⁻¹ s⁻¹

B2: hTAAB, hTie2-activating mouse monoclonal antibody (mouse IgG1) (antibody, V domains shown)
VH: QVQLQQPGAELVRPGASVKLSCKASGYSFTSYWMNWVKQRPGQGLEWIGMIHPSDSETRLNQKFMDKATLTVDKSSSTAYMQLSSPTSEDSAVYYCARGLYGNSWGQGTLVTVSA
VL: DIQMTQSPSSLSASLGERVSLTCRASQDIGISLNWLQQEPDGTIKRLIYATSSLDSGVPKRFSGSRSGSDYSLTISSLESEDFVDYYCLQYASSPYTFGGGTKLEIK
notes: Mouse IgG1 from hybridoma; Only the variable regions are tied to the whole antibody; also called mouse hTAAB; parental hTAAB
binding result [2]: binds | Kd [3]: 4.2 nM | koff [3]: 0.0006 s⁻¹ | kon [3]: 140000 M⁻¹ s⁻¹

B3
binding result [4]: no binding (tested: 1 mg/ml)
